Source: patent US20140086904A1 (CHENGDU KANGHONG BIOTECHNOLOGIES, published 2014)

B1: KS04 (antibody, human IgG1, kappa, V domains shown)
VH: QVQLVESGGGLVKPGGSLRLSCAASGFTFSNAWMNWVRQAPGKGLEWVAEIRSKSINSATHYAESVKGRFTISRDNSKKTLYLEMNSLRVEDTAVYYCSRNYYGSTYDYWGQGTTLTVSS
VL: EIVLTQSPDFQSVTPKEKVTITCRASQSIYSSLHWYQQKPDQSPKLLIKFASQSVSGVPSRFSGSGSGTDFTLTINSLEAEDAATYYCQQSHSWPFTFGSGTNVDIKR
B2: KS02 (antibody, human IgG1, kappa, V domains shown)
VH: QVQLVESGGGLVKPGGSLRLSCAASGFTFSNAWMNWVRQAPGKGLEWVAEIRSKSINSATHYAESVKGRFTISRDNSKKTLYLEMNSLRVEDTAVYYCSRNYYGSTYDYWGQGTTLTVSS
VL: EIVLTQSPDFQSVSPKETVTITCRASQTVHMSLHWYQQKPNQSPRLLIKYGSQSFSGVPSRFSGSGSGTDFTLTINSLEPEDAATYYCQQSHSWPFTFGSGTNVDIKR
B3: KS10 (Glu) (antibody, V domains shown)
VH: EVQLVESGGGLVKPGGSLRLSCAASGFTFSNAWMNWVRQAPGKGLEWVAEIRSKSINSATHYAESVKGRFTISRDDSKNTVYLQMNSLKTEDTAVYYCSRNYYGSTYDYWGQGTTLTVSS
VL: EIVLTQSPDFQSVTPKEKVTITCRASQSIYSSLHWYQQKPDQSPKLLIKFASQSVSGVPSRFSGSGSGTDFTLTINSLEAEDAATYYCQQSHWWPFTFGSGTNVDIKR
notes: Full-length IgG1 from CHO cells; VH SH01 with the first amino acid Glu, VK SH08
B4: KS12 (antibody, human IgG1, kappa, V domains shown)
VH: QVQLVESGGGLVKPGGSLRLSCAASGFTFSNAWMNWVRQAPGKGLEWVAEIRSKSINSATHYAESVKGRFTISRDNSKKTLYLEMNSLRVEDTAVYYCSRNYYGSTYDYWGQGTTLTVSS
VL: EIVLTQSPDFQSVTPKEKVTITCRASQSIYSSLHWYQQKPDQSPKLLIKFASQSVSGVPSRFSGSGSGTDFTLTINSLEAEDAATYYCQQSHWWPFTFGSGTNVDIKR
B5: KS07 (antibody, human IgG1, kappa, V domains shown)
VH: QVQLVESGGGLVKPGGSLRLSCAASGFTFSNAWMNWVRQAPGKGLEWVAEIRSKSINSATHYAESVKGRFTISRDNSKKTLYLEMNSLRVEDTAVYYCSRNYYGSTYDYWGQGTTLTVSS
VL: EIVLTQSPDFQSVTPKEKVTITCRASQSIYSSLHWYQQKPDQSPKLLIKFASQSVSGVPSRFSGSGSGTDFTLTINSLEAEDAATYYCQQSHFWPFTFGSGTNVDIKR
B6: KS11 (antibody, human IgG1, kappa, V domains shown)
VH: QVQLVESGGGLVKPGGSLRLSCAASGFTFSNAWMNWVRQAPGKGLEWVAEIRSKSINSATHYAESVKGRFTISRDNSKKTLYLEMNSLRVEDTAVYYCSRNYYGSTYDYWGQGTTLTVSS
VL: EIVLTQSPDFQSVSPKETVTITCRASQTVHMSLHWYQQKPNQSPRLLIKYGSQSFSGVPSRFSGSGSGTDFTLTINSLEPEDAATYYCQQSHWWPFTFGSGTNVDIKR
B7: KS-2E (Fab, V domains shown)
VH: QVQLVESGGGLVKPGGSLRLSCAASGFTFSNAWMNWVRQAPGKGLEWVAEIRSKSINSATHYAESVKGRFTISRDNSKKTLYLEMNSLRVEDTAVYYCSRNYYGSTYQYWGQGTTLTVSS
VL: EIVLTQSPDFQSVSPKETVTITCRASQTVHMSLHWYQQKPNQSPRLLIKYGSQSFSGVPSRFSGSGSGTDFTLTINSLEPEDAATYYCQQSHKWPFTFGSGTNVDIKR
notes: Humanized Fab (heavy chain Fd fragment and light chain), expressed in E. coli periplasm
B8: KS08 (antibody, human IgG1, kappa, V domains shown)
VH: QVQLVESGGGLVKPGGSLRLSCAASGFTFSNAWMNWVRQAPGKGLEWVAEIRSKSINSATHYAESVKGRFTISRDNSKKTLYLEMNSLRVEDTAVYYCSRNYYGSTYDYWGQGTTLTVSS
VL: EIVLTQSPDFQSVSPKETVTITCRASQTVHMSLHWYQQKPNQSPRLLIKYGSQSFSGVPSRFSGSGSGTDFTLTINSLEPEDAATYYCQQSHFWPFTFGSGTNVDIKR

How the values were obtained:
[1] = target: T1, human tumor necrosis factor-α (R & D Co., Catalog Number: 210-TA-050) (human, UniProt P01375 77-233); assay: cell-based or functional assay
T1 sequence (P01375 77-233 limits assumed): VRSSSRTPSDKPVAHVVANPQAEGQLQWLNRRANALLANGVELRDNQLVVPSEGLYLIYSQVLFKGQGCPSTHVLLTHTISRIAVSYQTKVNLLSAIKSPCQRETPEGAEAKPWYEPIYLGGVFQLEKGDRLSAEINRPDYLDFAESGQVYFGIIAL

[2] = target: T1, human tumor necrosis factor-α (R & D …); assay: BLI, Octet RED 96, biotin-hTNF-α on streptavidin sensor, antibody in solution
Description: hTNF-α (R & D Co., 210-TA-050) and NHS-LCLC-biotin (Catalog Number: 21338, purchased from Thermo-fisher Co.,) were mixed uniformly at a molar ratio of 1:3 and kept at room temperature for 1 hour. Then, the remaining NHS-LCLC-biotin was removed by a PD-10 desalting column (Catalog Number: 17-0851-01, purchased from GE Co.,). The final conjugate products obtained were 50 μg/ml of biotin-hTNF-α.

[3] = target: T1, human tumor necrosis factor-α (R & D …); assay: ELISA, plate coated with human TNF-α, Fab titrated, anti-human C-Kappa-HRP
[4] = target: T1, human tumor necrosis factor-α (R & D …); assay: cell-based or functional assay; remark: listed apart in the source

Row | Binder | EC50, L929 cytotoxicity experiment [1] | other results
1 | B1 | 126 pM | –
2 | B2 | 109 pM | –
3 | B3 | 28 pM | Kd [2]: 2.18 pM; koff [2]: 1.02e-07 s⁻¹; kon [2]: 46900 M⁻¹ s⁻¹
4 | B4 | 136 pM | –
5 | B5 | 100 pM | –
6 | B6 | 59 pM | –
7 | B7 | – | EC50 [3]: 6660 pM; EC50 (read off the curve); L929 cytotoxicity assay, inhibition rate (%) [4]: ~4000 pM
8 | B8 | 113 pM | –
